Earlier results as cited in patent US20060289354A1, “Method and composition to control the growth of microorganisms in aqueous systems and on substrates” (Buckman Laboratories International, Inc., priority 2005, published 2006).
Where two headings read alike, the source gives them in different places.

Details: for shelf life: original sealed package

## lactoperoxidase [LP]
>65° C. for short time (10 minutes)
  effect of exposure to elevated temperature: denaturation of the protein and loss of the activity
8° C.
  shelf life: ≥ 2 years
20° C.
  shelf life: at least 1 year
Typical commercial form
  optimal pH: 5.0-6.5
